Source: the supplement of paper PMC7125110
± gives the standard error. For some assays here: Fewer inactive variants are shown than the library holds.

B1: glmS ribozyme (parent)
chain: AUAAAAGCGCCAGAACUACAGAAAUGUAGUUGACGAGGAGGAGGUUUAUCGAAUUUUCGGCGGAUGCCUCCAAA

How the values were obtained:
Settings in all cases: with glucosamine-6-phosphate
glucosamine-6-phosphate [1] = variants of: B1; test: kcat; higher = faster cleavage; RNA array
How it was run: (§1)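 Sequenced MiSeq chips were the platform: E. coli RNA polymerase transcribed barcoded ribozyme variants on them in situ, and a hybridised Cy3 probe tracked these at 37 °C. After glucosamine-6-phosphate (40 μM to 10 mM) in HEPES/KCl/Mg(OAc)2 buffer was flowed in, tiles were imaged over ~14 h. Signals normalised to baseline and to non-cleaving reference variants were reduced to per-tile medians and fit to one- or two-exponential decays to obtain kobs. kcat and KM were derived through weighted Michaelis–Menten fits across concentrations.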

glucosamine-6-phosphate [2] = variants of: B1; test: KM; higher = weaker cofactor use; RNA array
How it was run: as §1

glucosamine-6-phosphate [3] = variants of: B1; test: self-cleavage kobs at 40 uM GlcN6P; higher = faster cleavage; RNA array
How it was run: as §1

glucosamine-6-phosphate [4] = variants of: B1; test: self-cleavage kobs at 160 uM GlcN6P; higher = faster cleavage; RNA array
How it was run: as §1

glucosamine-6-phosphate [5] = variants of: B1; test: self-cleavage kobs at 640 uM GlcN6P; higher = faster cleavage; RNA array
How it was run: as §1

glucosamine-6-phosphate [6] = variants of: B1; test: self-cleavage kobs at 2500 uM GlcN6P; higher = faster cleavage; RNA array
How it was run: as §1

glucosamine-6-phosphate [7] = variants of: B1; test: self-cleavage kobs at 10000 uM GlcN6P; higher = faster cleavage; RNA array
How it was run: as §1

| Variant | kcat (glucosamine-6-phosphate [1]) [s⁻¹] | KM (glucosamine-6-phosphate [2]) [µM] | self-cleavage kobs at 40 uM GlcN6P (glucosamine-6-phosphate [3]) [s⁻¹] | self-cleavage kobs at 160 uM GlcN6P (glucosamine-6-phosphate [4]) [s⁻¹] | self-cleavage kobs at 640 uM GlcN6P (glucosamine-6-phosphate [5]) [s⁻¹] | self-cleavage kobs at 2500 uM GlcN6P (glucosamine-6-phosphate [6]) [s⁻¹] | self-cleavage kobs at 10000 uM GlcN6P (glucosamine-6-phosphate [7]) [s⁻¹] |
| --- | --- | --- | --- | --- | --- | --- | --- |
| U31C A39U | 0.00686 ± 0.0022 | 6250 ± 2600 | 7.06e-05 ± 8.4e-06 | 0.000146 ± 1.5e-05 | 0.000692 ± 6.8e-05 | 0.00175 ± 0.00023 | 0.00432 ± 0.00036 |
| G29C U57A | 4.62e-05 ± 8e-06 |  |  |  |  |  | 3.78e-05 ± 1.1e-05 |
| G29U U46A | 0.000356 ± 1.1e-05 | 2530 ± 150 |  |  | 7.15e-05 ± 1.2e-05 | 0.000184 ± 3.7e-05 | 0.000282 ± 3.6e-05 |
| U30A C58U | 1.78e-05 ± 3.6e-06 |  |  |  |  |  |  |
| G29U U56G | 0.00364 ± 0.0012 | 3840 ± 1700 | 6.41e-05 ± 1.1e-05 | 0.000127 ± 1.6e-05 | 0.000648 ± 9.8e-05 | 0.00118 ± 0.0002 | 0.00283 ± 0.00035 |
| U31C C68G | 1.29e-05 ± 2.8e-06 |  |  |  |  |  |  |
| G29U U47A | 0.00313 ± 0.00095 | 1350 ± 650 | 9.83e-05 ± 1.2e-05 |  | 0.000972 ± 0.00015 | 0.00104 ± 0.00036 | 0.0033 ± 0.00035 |
| U30A U49G | 0.000169 ± 3.4e-05 | 3780 ± 1600 |  |  |  | 7.22e-05 ± 1.2e-05 | 0.000119 ± 2.1e-05 |
| G29C C67A C71U | 0.0001 ± 1.5e-05 |  |  |  | 0.000116 ± 2.2e-05 | 7.49e-05 ± 1.9e-05 | 0.000106 ± 1.9e-05 |
| U30C G41A | 1.28e-05 ± 1.8e-06 |  |  |  | < 1e-05 |  |  |
| U31A C50A | 1.34e-05 ± 6.2e-07 | 605 ± 190 | < 1e-05 | < 1e-05 | < 1e-05 |  |  |
| U30C C68U | 0.000128 ± 8.6e-06 | 1210 ± 270 |  |  | 4.07e-05 ± 6.8e-06 | 9.82e-05 ± 1.1e-05 | 0.000111 ± 8.5e-06 |
| U30C C68A | 3.05e-05 ± 8e-06 |  |  |  |  | 3.62e-05 ± 1.1e-05 |  |
| G29C C61A | 1.76e-05 ± 3.3e-06 |  | < 1e-05 |  |  |  |  |
| U30C U69C | 0.00014 ± 1.4e-05 | 591 ± 210 |  | 3.85e-05 ± 1.7e-05 | 6.58e-05 ± 1e-05 | 0.000129 ± 1.3e-05 | 0.000122 ± 1.4e-05 |
| U30G C50U | < 1e-05 |  |  | < 1e-05 |  |  |  |
| U30C G32A | 0.00241 ± 0.00034 | 3840 ± 740 |  | 0.000106 ± 1.2e-05 | 0.000321 ± 4.3e-05 | 0.000932 ± 8.8e-05 | 0.00181 ± 0.00026 |
| U30A C50U | 1.13e-05 ± 4.2e-06 |  |  |  |  |  |  |
| U30C U54G | 0.000209 ± 1.3e-05 | 411 ± 120 |  | 9.02e-05 ± 4.2e-05 | 0.000118 ± 2.8e-05 | 0.00018 ± 3.5e-05 | 0.000203 ± 2.5e-05 |
